# Measured values from paper PMC8253979, “The C-terminal tail extension of myosin 16 acts as a molten globule, including intrinsically disordered regions, and interacts with the N-terminal ankyrin” (The Journal of Biological Chemistry, 2021).
# T1: myosin 16 C-terminal tail (Myo16Tail), His6-tagged, with the IQ motif (Rattus norvegicus, UniProt Q9ERC1 1146-1912)
# T1 construct: Myosin 16 (Myo16b isoform, 1912 aa), Rattus norvegicus, UniProt Q9ERC1, residues 1146-1912: IQ motif, NHM, proline-rich region and C-terminal element; cloned into pFastBac; No removal of the His6 tag is described; also called His6–Myo16Tail; C-terminal tail extension of Myo16b; source: baculovirus/Sf9, purified under denaturing conditions (6 M GuHCl, 8 M urea, Ni-NTA), renatured by dialysis
# T1 sequence (looked up): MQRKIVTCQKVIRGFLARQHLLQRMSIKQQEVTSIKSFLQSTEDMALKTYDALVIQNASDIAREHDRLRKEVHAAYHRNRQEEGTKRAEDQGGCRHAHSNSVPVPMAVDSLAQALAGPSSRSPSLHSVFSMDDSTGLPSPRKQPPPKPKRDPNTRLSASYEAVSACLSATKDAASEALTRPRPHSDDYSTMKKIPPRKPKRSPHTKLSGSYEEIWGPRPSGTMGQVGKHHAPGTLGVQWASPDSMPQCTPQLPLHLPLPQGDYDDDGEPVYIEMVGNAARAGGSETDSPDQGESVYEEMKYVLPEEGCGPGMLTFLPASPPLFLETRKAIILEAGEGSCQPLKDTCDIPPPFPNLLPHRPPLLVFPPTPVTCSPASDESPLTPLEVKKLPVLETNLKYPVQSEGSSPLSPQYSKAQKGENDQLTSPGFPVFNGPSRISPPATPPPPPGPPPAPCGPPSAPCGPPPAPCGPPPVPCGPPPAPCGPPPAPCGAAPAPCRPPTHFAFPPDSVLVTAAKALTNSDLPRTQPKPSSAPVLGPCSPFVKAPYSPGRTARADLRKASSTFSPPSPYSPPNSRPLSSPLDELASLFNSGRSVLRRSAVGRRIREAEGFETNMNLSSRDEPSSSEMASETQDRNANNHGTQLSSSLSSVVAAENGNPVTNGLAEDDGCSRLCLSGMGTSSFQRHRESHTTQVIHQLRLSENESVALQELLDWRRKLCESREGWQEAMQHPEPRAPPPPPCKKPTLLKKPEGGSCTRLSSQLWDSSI
# T2: Myo16Tail without the IQ motif, Myo16Tail (−IQ), His6-tagged (Rattus norvegicus, UniProt Q9ERC1 1176-1912)
# T2 construct: Myosin 16 (Myo16b isoform), Rattus norvegicus, UniProt Q9ERC1, residues 1176-1912 (tail without the IQ motif); Cloned into the pFastBac vector as m1; No removal of the His6 tag is described; also called His6–Myo16Tail (−IQ); source: baculovirus/Sf9, purified by the denaturing procedure (Ni-NTA), renatured
# T2 sequence (looked up): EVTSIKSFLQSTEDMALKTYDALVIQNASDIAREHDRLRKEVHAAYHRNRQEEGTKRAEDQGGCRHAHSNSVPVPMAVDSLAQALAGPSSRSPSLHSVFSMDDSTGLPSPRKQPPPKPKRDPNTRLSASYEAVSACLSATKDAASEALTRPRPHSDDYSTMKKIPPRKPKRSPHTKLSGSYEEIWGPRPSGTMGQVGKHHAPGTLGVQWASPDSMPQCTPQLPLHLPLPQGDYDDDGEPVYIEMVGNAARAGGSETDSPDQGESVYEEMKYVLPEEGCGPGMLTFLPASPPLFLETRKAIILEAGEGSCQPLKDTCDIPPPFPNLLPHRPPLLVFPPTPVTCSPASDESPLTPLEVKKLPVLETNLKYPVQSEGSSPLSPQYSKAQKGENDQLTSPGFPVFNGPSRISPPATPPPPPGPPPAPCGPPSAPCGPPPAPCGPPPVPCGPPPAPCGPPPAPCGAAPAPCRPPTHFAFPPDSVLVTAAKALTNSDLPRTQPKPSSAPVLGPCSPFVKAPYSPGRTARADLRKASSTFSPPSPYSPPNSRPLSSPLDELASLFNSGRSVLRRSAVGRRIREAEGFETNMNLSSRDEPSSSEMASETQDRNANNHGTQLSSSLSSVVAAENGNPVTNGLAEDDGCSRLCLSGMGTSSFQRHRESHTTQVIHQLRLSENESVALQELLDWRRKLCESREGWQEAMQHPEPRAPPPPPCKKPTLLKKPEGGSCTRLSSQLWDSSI
# T3: Alexa568-labelled synthesized rat myosin 16 IQ motif peptide (Alexa568–Myo16IQ) (Rattus norvegicus, UniProt Q9ERC1 1146-1175, Alexa Fluor C5 568 maleimide label, position not stated)
# T3 construct: Myosin 16 IQ motif, Rattus norvegicus, residues 1146-1175 (30 amino acids, MW 3.6385 kDa by mass spectrometry); source: synthetic peptide (GenScript)
# T3 peptide (looked up): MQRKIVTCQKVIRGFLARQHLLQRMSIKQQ
# Tests used:
# Conditions in all cases: both partners purified
# [1] = molecular target: T1, myosin 16 C-terminal tail (Myo16Tail), …; assay: fluorescence polarisation; steady-state fluorescence anisotropy; Alexa568–Myo16Ank fixed (1.2 μM with Myo16Tail, 1 μM with Myo16Tail (−IQ)), tail construct titrated; λex 578 nm, λem 601 nm; quadratic binding equation (Equation 1)
# [2] = molecular target: T2, Myo16Tail without the IQ motif, …; assay: as above
# [3] = molecular target: T3, Alexa568-labelled synthesized rat …; assay: fluorescence polarisation; steady-state fluorescence anisotropy; Alexa568–Myo16IQ fixed (1 μM), Myo16Ank titrated; λex 578 nm, λem 601 nm; quadratic binding equation (Equation 1)
Kd [1],Kd [2],Kd [3],Binder
2.5 µM,5.6 µM,–,"Alexa568-labelled N-terminal ankyrin domain of myosin 16 (Alexa568–Myo16Ank) (domain or fragment, Alexa Fluor C5 568 maleimide label, position not stated) MEIDQCLLESLPLGQRQRLVRRMRCEQIKAYYEREKVFQKQEGLLKRIKPGKSQKVRFGLADMIQDAIIHHHDKEVLQLLKEGADPHTLVSSGGSLLHLCARYDNVFIAEVLIDRGVNVNHQDEDFWAPMHIACACDNPDIVLLLILAGANVLLQDVNGNIPLDYAVEGTESSAILLAYLDENGVDLNSLRQIKLQRPLSMLTDVRHFLSSGGDVNEKNDDGVTLLHMACASGYKEVVLLLLEHGGDLNGMDDGYWTPLHLAAKYGQTTLVKLLLAHQANPHLVNCNGEKPSDIAASESIEEMLLKAEIAWEERMKESPSVPSLAQEELYEEILHDLPELSSKLSPLVLPIAKQDSLLEKDIMFKDTTKGLCNQESQDGPPETSMVSSSSKPEQVQLTPP"
–,–,16 µM,"N-terminal ankyrin domain of myosin 16 (Myo16Ank), unlabelled (domain or fragment) MEIDQCLLESLPLGQRQRLVRRMRCEQIKAYYEREKVFQKQEGLLKRIKPGKSQKVRFGLADMIQDAIIHHHDKEVLQLLKEGADPHTLVSSGGSLLHLCARYDNVFIAEVLIDRGVNVNHQDEDFWAPMHIACACDNPDIVLLLILAGANVLLQDVNGNIPLDYAVEGTESSAILLAYLDENGVDLNSLRQIKLQRPLSMLTDVRHFLSSGGDVNEKNDDGVTLLHMACASGYKEVVLLLLEHGGDLNGMDDGYWTPLHLAAKYGQTTLVKLLLAHQANPHLVNCNGEKPSDIAASESIEEMLLKAEIAWEERMKESPSVPSLAQEELYEEILHDLPELSSKLSPLVLPIAKQDSLLEKDIMFKDTTKGLCNQESQDGPPETSMVSSSSKPEQVQLTPP"
